Here are results for 5 molecules from patent publication US20100279937A1, “Method of Inhibiting Angiogenesis, Tumorigenesis and Cathepsin Activity” (priority 2006, published 2010).

Assay [1] has as its system U87MG cells. Nature of the assay: U87MG growth in semi-solid (soft) agar. As to conditions: Alamar Blue. Format: cell-based, human. The method, then: […] Approximately 15,000 cells±treatment were resuspended in 150 μl medium containing 0.3% agar, and seeded onto a well of a 24-well plate previously layered with 250 μl 0.6% agar. The solidified cell layer was covered with 50 μl DME±treatment which was replaced every three days over a 21 day period. Phase contrast images (6 fields/well) were captured using a digital video camera (Olympus U-CMT) and analyzed with Northern Eclipse v.5.0 software. Color images were transformed to grey scale, thresholded, and then converted to binary images. Number and area of colonies per field were calculated. In order to measure cell viability, at the end of the experiment, 40 μl alamar blue was added to each well and fluorescence readings were performed every 10 min for a period of 180 min. Experiments were repeated 2-3 times in triplicates.
A general note: Resazurin is reduced to fluorescent resorufin, in cell work by metabolically active cells.

Assay [2] has as its system human brain endothelial cells (HBEC). Kind of assay: Capillary-like tube (CLT) formation by HBEC on Matrigel (in vitro angiogenesis). The assay is classed as cell-based. To be noted: 20 nM, HBEC on Matrigel. The protocol:
Human brain endothelial cells (HBEC) were obtained from small intracortical microvessels and capillaries (20-112 μm) harvested from temporal cortex from patients treated surgically for idiopathic epilepsy. Tissues were obtained with approval from the Institutional Research Ethics Committee. HBEC were separated from smooth muscle cells with cloning rings and grown at 37° C. in HBEC media containing Earle's salts, 25 mM 4-(2-hydroxyethyl)-1-piperazineethanesulfonic acid (HEPES), 4.35 g/L sodium bicarbonate, and 3 mM L-glutamine, 10% FBS, 5% human serum, 20% of media conditioned by murine melanoma cells (mouse melanoma, Cloudman S91, clone M-3, melanin-producing cells), 5 μg/ml insulin, […], 5 ng/ml selenium, and 10 μg/ml endothelial cell growth supplement. HBEC cultures were routinely characterized morphologically and biochemically.
(§1) In vitro angiogenesis was assessed by endothelial tube formation in growth factor reduced Matrigel™ (BD Bioscience, Bedford, Mass.). 24-well plates were coated with 300 μl of unpolymerized Matrigel™ (5-7 mg prot/ml) and allowed to polymerize for 90 min at 37° C. HBEC (40,000 cells) were suspended in 500 μl of either DME, serum-free U87MG CM (collected as described in Cell Cultures) or growth factors (VEGF, IGF-1, bFGF) in the absence or presence of 20 nM of either full length recombinant IGFBP-1 (IBP1, produced at BRI-NRC), IGFBP-2 (IBP2, produced at BRI-NRC and purchased from R&D systems, Minneapolis), IGFBP-3 (IBP3, from R&D systems), IGFBP-4 (IBP4, produced at BRI-NRC), IGFBP-5 (IBP5, produced at BRI-NRC and purchased from R&D systems) and IGFBP-6 (IBP6, from R&D systems) or the C-terminal protein fragments of IGFP-1 (CIBP1), IGFBP-2 (CIBP2), IGFBP-4 (CIBP4), IGFBP-5 (CIBP5) and IGFBP-6 (CIBP6), all produced at BRI-NRC). The ability of a synthetic membrane permeable cathepsin B inhibitor (CA074-ME, EMD Biosciences, Canada) to inhibit angiogenes and cathepsin B activity was also studied. CLT formation was analyzed after 24 h using an Olympus 1×50 microscope. Phase contrast images were captured with a digital video camera (Olympus U-CMT) and analyzed using Northern Eclipse v.5.0 software. Experiments were repeated three times. In order to determine the levels of cathepsin B activity in each experimental condition, at the end of the experiment, 6 μl of 26× Magic Red™ Cathepsin B reagent (Immunochemistry Technologies, LLC) were added to all the wells and maintained at 37° C. in dark for two hours. Cells were washed twice with HBSS and intracellular fluorescence quantification (530/25 nm excitation and 645/40 nm emission) was performed using a cytofluorimeter plate reader (Bio-Tek FL600).

A further assay deals with T1, cathepsin B (Homo sapiens, UniProt P07858).
T1 construct: Levels of cathepsin B activity were also measured in U87MG CM alone or pre-incubated; endogenous in cells; host or cells: U87MG (ATCC), 3-day serum-free conditioned medium
Kind of assay: Intracellular cathepsin B activity in HBEC seeded on Matrigel (Magic Red). As to conditions: 20 nM. The assay is classed as cell-based. The method, then: as §1
To determine the ability of these angiogenic factors to stimulate cathepsin B activity in HBEC, a membrane permeable cathepsin B target sequence peptide (Arginine-Arginine) linked to an amide substituted fluorophore, cresyl violet (Magic Red™, Immunochemistry Technologies, LLC) was used. Following enzyme cleavage at the arginine amide linkage site, the cresyl violet fluorophore generates red fluorescence when excited at 550-590 nm.

The subject of assay [3] is U87MG cells. As to conditions: disclosed in copending PCT/CA2006/000250; cited from earlier work.

Take `CCCC(=O)Nc1ncnc2c1ncn2[C@@H]1O[C@@H]2COP(=O)(O)O[C@H]2[C@H]1OC(=O)CCC` [dB-cAMP, dybutyril cAMP, reference compound]: in the assay with U87MG cells [1] (500 μg/ml dB-cAMP, positive control), the “inhibition of U87MG colony formation in soft agar (efficacy)” value (from here on “inhibition of U87MG colony formation”) is listed as around 65%.

B1: IBP2: recombinant full-length IGFBP-2 (aas 1-328, SEQ ID No. 3); produced at BRI-NRC and purchased from R&D systems (protein)
chain: MLPRVGCPALPLPPPPLLPLLPLLLLLLGASGGGGGARAEVLFRCPPCTPERLAACGPPPVAPPAAVAAVAGGARMPCAELVREPGCGCCSVCARLEGEACGVYTPRCGQGLRCYPHPGSELPLQALVMGEGTCEKRRDAEYGASPEQVADNGDDHSEGGLVENHVDSTMNMLGGGGSAGRKPLKSGMKELAVFREKVTEQHRQMGKGGKHHLGLEEPKKLRPPPARTPCQQELDQVLERISTMRLPDERGPLEHLYSLHIPNCDKHGLYNLKQCKMSLNGQRGECWCVNPNTGKLIQGAPTIRGDPECHLFYNEQQEARGVHTQRMQGSGWSHPQFEKTGHHHHHHHHGGQ
modifications: human
notes: produced at BRI-NRC and purchased from R&D systems
Regarding B1, in assay [2] (IGF-1 (150 ng/ml)), the “inhibition of angiogenic response induced by IGF-1” value is “completely inhibit”. Besides, the “inhibition of angiogenic response induced by U87MG CM” value in assay [2] (U87MG CM) is reported as “did not inhibit”. In addition, the “inhibition of angiogenic response induced by VEGF” value in assay [2] (VEGF (20 ng/ml)) is “completely inhibit”. In assay [2] (bFGF (20 ng/ml)), the “inhibition of angiogenic response induced by bFGF” value is reported as “did not inhibit”. For the same molecule, the “inhibition of intracellular cathepsin B activity induced by IGF-1” value with cathepsin B (IGF-1 (150 ng/ml)) is reported as “completely inhibit”. Moreover, the “inhibition of intracellular cathepsin B activity induced by U87MG CM” value with cathepsin B (U87MG CM) is reported as “did not inhibit”. The “inhibition of intracellular cathepsin B activity induced by VEGF” value with cathepsin B (VEGF (20 ng/ml)) is on record as “completely inhibit”. Also, the “inhibition of intracellular cathepsin B activity induced by bFGF” value in the assay with cathepsin B (bFGF (20 ng/ml)) is listed as “did not inhibit”.

B2: CIBP6: IGFBP-6 C-terminal fragment (aas 151-240, SEQ ID No. 10) with octahistidine tag (protein)
chain: MGELLLLLLLGLRLQLSLGIARNSAGVQDTEMGPCRRHLDSVLQQLQTEVYRGAQTLYVPNCDHRGFYRKRQCRSSQGQRRGPCWCVDRMGKSLPGSPDGNGSSSCPTGSSGSSTGHHHHHHHHG
modifications: octahistidine tag; C-terminal fragment of IGFBP-6
Take B2: in the assay with U87MG cells [1] (20 nM), the “inhibition of U87MG colony formation” value is recorded as around 25%.

B3: CIBP1: IGFBP-1 C-terminal domain (aa 170-259, SEQ ID No. 2) with octahistidine tag (protein)
chain: MGELLLLLLLGLRLQLSLGIASKKWKEPCRIELYRVVESLAKAQETSGEEISKFYLPNCNKNGFYHSRQCETSMDGEAGLCWCVYPWNGKRIPGSPEIRGDPNCQIYFNVQASSGSSTGHHHHHHHHG
modifications: octahistidine tag; C-terminal fragment of IGFBP-1
On to B3, for which the “inhibition of U87MG colony formation” value with U87MG cells [1] (20 nM) is given as around 25%.

B4: IGFBP-4: recombinant full-length IGFBP-4 (SEQ ID No. 5) with StreptagII-octahistidine tag (protein)
chain: MLPLCLVAALLLAAGPGPSLGDEAIHCPPCSEEKLARCRPPVGCEELVREPGCGCCATCALGLGMPCGVYTPRCGSGLRCYPPRGVEKPLHTLMHGQGVCMELAEIEAIQESLQPSDKDEGDHPNNSFSPCSAHDRRCLQKHFAKIRDRSTSGGKMKVNGAPREDARPVPQGSCQSELHRALERLAASQSRTHEDLYIIPIPNCDRNGNFHPKQCHPALDGQRGKCWCVDRKTGVKLPGGLEPKGELDCHQLADSFREVDPWSHPQFEKTGHHHHHHHHGGQ
modifications: StreptagII-octahistidine tag; human
On to B4, for which the “reduction of U87MG colony formation in soft agar” value with U87MG cells [3] is recorded as “able to reduce U87MG colony formation”.
